Positions count from the first letter of the chain named.
Experiments:
[1] = molecular target: T1, human PD-1 expressed on CHO-S cells (human, UniProt Q15116 25-288); test: cell-based ELISA on fixed CHO-S cells expressing human PD-1
T1 construct: CHO-S cells transfected with pCMV3-C-FLAG vector (Sino) holding human PD-1 cDNA; also called cell surface human PD-1; hPD-1

human PD-1 protein [2] = molecular target: T2, human PD-1 protein (human, UniProt Q15116 25-167, limits assumed); test: SPR, Biacore 8K, antibody captured on Protein A chip, human PD-1 as analyte
T2 construct: also called human PD-1 antigen

human PD-1 protein [3] = molecular target: T2, human PD-1 protein; test: SPR, Biacore 8K, antibody captured by anti-human IgG on CM5, human PD-1 as analyte
Protocol: Anti-human IgG antibody was immobilized on a CM5 chip (Cytiva) via amine coupling. […] Human PD-1 and running buffer at a concentration of 0-100 nM (0, 6.25, 12.5, 25, 50, 100 nM) were flowed onto the sensor chip at a flow rate of 30 μl/min for an association phase of 120 s, which was followed by a dissociation phase of 900 s. The chip was regenerated with glycine at pH 1.5 after each experiment. Association and dissociation curves were drawn using Cytiva evaluation software, and kinetics and affinity values were determined.

[4] = molecular target: T1, human PD-1 expressed on CHO-S cells; test: cell-based ELISA on CHO-S cells expressing human PD-1
Protocol: To summarize the ELISA analysis, 10,000 CHO-S cells expressing either human PD-1 or mouse PD-1 were coated in a collagen-coated 96-well plate (Thermo scientific) overnight in an incubator at 37° C. The coated cells were fixed with 8% paraformaldehyde at room temperature for 15 minutes.
After washing, a secondary antibody was added and incubated overnight at 4° C. […] After washing, TMB substrate (abcam) was added, and the color reaction was stopped with STOP solution (abcam). Absorbance at 450/650 nm was measured using a microplate reader (ThermoFisher).

human PD-1 protein [5] = molecular target: T2, human PD-1 protein; test: SPR, Biacore 8K, antibody captured on Protein A chip, human PD-1 as analyte, pH 7.4
human PD-1 protein [6] = molecular target: T2, human PD-1 protein; test: SPR (Biacore 8K), ratio between the values at pH 7.4 and pH 6.0, human PD-1 as analyte
Protocol: (§1) The binding kinetics of each antibody to human PD-1 were measured through SPR (Surface Plasma Resonance) analysis using Biacore 8K (Cytiva), and the antibodies' binding affinities to the antigen were compared to one another.
(§2) Seven concentrations ([…]) of human PD-1 were flowed onto the sensor chip at a flow rate of 30 μL/min for an association phase of 120 s, followed by dissociation for 1800 s. Capture, association, and dissociation were performed in HBS-EP+buffer at pH 6.0. The chip was regenerated with glycine at pH 1.5 after each experiment. Association and dissociation curves were drawn using Cytiva evaluation software, and kinetics and affinity values were determined.

human PD-1 protein [7] = molecular target: T2, human PD-1 protein; test: SPR, Biacore 8K, antibody captured on Protein A chip, human PD-1 as analyte, HBS-EP+ at pH 6.0
Protocol: as §1, §2

[8] = molecular target: T3, extracellular domain (ECD) PD-1 protein from mouse (mouse, UniProt Q02242 25-169); test: protein-based ELISA, coated PD-1 ECD, antibody at 1 ug/ml
T3 construct: extracellular domain; also called mouse PD-1 antigen
T3 sequence (looked up): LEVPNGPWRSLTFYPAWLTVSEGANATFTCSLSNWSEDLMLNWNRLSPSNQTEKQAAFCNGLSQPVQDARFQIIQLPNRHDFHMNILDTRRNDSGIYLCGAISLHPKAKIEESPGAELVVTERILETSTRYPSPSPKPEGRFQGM
Protocol: (§3) To determine the cross-reactivity of the antibody to PD-1 antigens, protein-based ELISA was performed. To summarize the ELISA analysis, a 96-well plate (Thermo scientific) was coated with 10 ng of the extracellular domain (ECD) PD-1 proteins from human, mouse, rabbit, cynomolgus, and rat overnight at 4° C. […] After washing, a secondary antibody (anti-human IgG antibody) was added and incubated at 37° C. for 2 hours. After washing, TMB substrate (abcam) was added, and the color reaction was stopped with STOP solution (abcam). Absorbance at 450/650 nm was measured using a microplate reader (ThermoFisher).

[9] = molecular target: T4, extracellular domain (ECD) PD-1 protein from human (human, UniProt Q15116 25-170); test: as above
T4 construct: the whole entry is named; also called human PD-1 antigen
Protocol: as §3

human PD-1 protein [10] = molecular target: T2, human PD-1 protein; test: SPR; ratio against the U299-WT parent
human PD-1 protein [11] = molecular target: T2, human PD-1 protein; test: SPR, binding kinetics to human PD-1
human PD-1 protein [12] = molecular target: T2, human PD-1 protein; test: SPR, binding kinetics to human PD-1; parent run 2
human PD-1 protein [13] = molecular target: T2, human PD-1 protein; test: SPR, binding kinetics to human PD-1; parent run 1

T2 sequence (Q15116 25-167 limits assumed): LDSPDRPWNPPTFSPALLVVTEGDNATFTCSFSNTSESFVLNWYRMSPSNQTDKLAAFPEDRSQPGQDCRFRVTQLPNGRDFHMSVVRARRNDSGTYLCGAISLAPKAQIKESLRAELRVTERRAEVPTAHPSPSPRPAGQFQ
T1 sequence (Q15116 25-288 limits assumed): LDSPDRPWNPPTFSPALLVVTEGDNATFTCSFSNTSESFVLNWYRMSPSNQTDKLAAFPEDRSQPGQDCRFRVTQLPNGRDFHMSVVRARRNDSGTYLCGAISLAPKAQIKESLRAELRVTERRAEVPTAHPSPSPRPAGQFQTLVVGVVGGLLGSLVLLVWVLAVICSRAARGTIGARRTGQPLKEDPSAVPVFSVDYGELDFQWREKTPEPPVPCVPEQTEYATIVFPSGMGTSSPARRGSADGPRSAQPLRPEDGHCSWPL
T4 sequence (Q15116 25-170 limits assumed): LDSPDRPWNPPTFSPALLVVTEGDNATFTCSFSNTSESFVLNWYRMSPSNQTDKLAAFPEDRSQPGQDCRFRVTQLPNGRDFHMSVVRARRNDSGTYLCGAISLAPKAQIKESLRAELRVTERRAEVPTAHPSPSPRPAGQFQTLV

## Keytruda (antibody)
[1]
  EC50 (read off the curve): 0.05 µg/mL
Human PD-1 protein [2]
  Kd: 7.06 nM
Human PD-1 protein [3]
  Kd: 6.33 nM
[4]
  EC50: 0.154 nM
Human PD-1 protein [5]
  Kd: 6.6 nM

B1: 2E5 antibody (antibody, V domains shown)
VH: QVQLVQSGAEVKKPGSSVKVSCKASGFTFTTYYISWVRQAPGQGLEYLGYINMGSGGTNYNEKFKGRVTITADKSTSTAYMELSSLRSEDTAVYYCAIIGYFDYWGQGTMVTVSS
VL: DVVMTQSPLSLPVTLGQPASISCRSSQSLLDSDGGTYLYWFQQRPGQSPRRLIYLVSTLGSGVPDRFSGSGSGTDFTLKISRVEAEDVGVYYCMQLTHWPYTFGQGTKLEIK
Human PD-1 protein [6]
  Ratio(PH 7.4 vs PH6) KD: 2.8
  Ratio(PH 7.4 vs PH6) ka: 3.4
  Ratio(PH 7.4 vs PH6) kd: 0.8
Human PD-1 protein [7]
  Kd: 4.5 nM
Human PD-1 protein [5]
  Kd: 12.6 nM

B2: humanized antibody 1G1-h68 (antibody, human IgG4, kappa, V domains shown)
VH: QVQLVQSGAEVKKPGASVKVSCKASGYTFTGYWMHWVRQAPGQGLEWIGMIHPNSDTTTYNEKFKNRVTMTRDTSISTAYMELSRLRSDDTAVYYCTGTDQAAWFAFWGQGTTVTVSS
VL: DIVMTQTPLSLSVTPGQPASISCRSSQNIVHSNGDTYLEWYLQKPGQSPQLLIYKVSKRFSGVPDRFSGSGSGTDFTLKISRVEAEDVGVYYCFQGSHVPWTFGGGTKVEIKR
notes: hIgG4 heavy chain, human kappa light chain
[8]
  binding result: binds
[9]
  binding result: binds

B3: AHF16556 (antibody, V domains shown)
VH: B2 VH with T59V, E62W, T97A, A102E, F105A
VL: DIVMTQTPLSLSVTPGQPASISCRSSQNIVRSQGDTYLEWYLQKPGQSPQLLIYKVSKRFSGVPDRFSGSGSGTDFTLKISRVEAEDVGVYYCFQGSHVPWTFGGGTKVEIK
Human PD-1 protein [10]
  Ratio (kD): 5.27
  Ratio (kd): 6.45
Human PD-1 protein [11]
  Kd: 0.427 nM
  koff: 6.31e-05 s⁻¹
  kon: 148000 M⁻¹ s⁻¹

B4: humanized antibody 1G1-h70 (antibody, V domains shown)
VH: B2 VH with T97A
VL: B2 VL with N33Q
notes: hIgG4 heavy chain, human kappa light chain; also called 1G1-h70 parent antibody (WT); U299-WTI
Human PD-1 protein [12]
  Kd: 2.17 nM
  koff: 0.000412 s⁻¹
  kon: 190000 M⁻¹ s⁻¹
[8]
  binding result: binds
Human PD-1 protein [6]
  Ratio(PH 7.4 vs PH6) KD: 5.8
  Ratio(PH 7.4 vs PH6) ka: 2.3
  Ratio(PH 7.4 vs PH6) kd: 2.7
Human PD-1 protein [7]
  Kd: 0.9 nM
Human PD-1 protein [5]
  Kd: 5.4 nM
Human PD-1 protein [13]
  Kd: 2.32 nM
  koff: 0.000402 s⁻¹
  kon: 174000 M⁻¹ s⁻¹

B5: AHF16570 (antibody, V domains shown)
VH: B2 VH with T59I, E62W, T97A, F105A, A106G
VL: B3 VL
Human PD-1 protein [10]
  Ratio (kD): 11.2
  Ratio (kd): 12.4
Human PD-1 protein [11]
  Kd: 0.2 nM
  koff: 3.29e-05 s⁻¹
  kon: 164000 M⁻¹ s⁻¹

B6: AHF16563 (antibody, V domains shown)
VH: B2 VH with T59V, E62W, T97A, A102E, F105M, A106G
VL: B3 VL with R31H
Human PD-1 protein [10]
  Ratio (kD): 13.6
  Ratio (kd): 11.3
Human PD-1 protein [11]
  Kd: 0.165 nM
  koff: 3.6e-05 s⁻¹
  kon: 218000 M⁻¹ s⁻¹

B7: AHF16564 (antibody, V domains shown)
VH: B2 VH with T97A, A102E, F105A, A106G
VL: B3 VL
Human PD-1 protein [10]
  Ratio (kD): 14.1
  Ratio (kd): 11.1
Human PD-1 protein [11]
  Kd: 0.16 nM
  koff: 3.68e-05 s⁻¹
  kon: 230000 M⁻¹ s⁻¹

B8: AHF16566 (antibody, V domains shown)
VH: B2 VH with T59V, E62W, T97A, F105A
VL: B3 VL with R31H
Human PD-1 protein [10]
  Ratio (kD): 6.45
  Ratio (kd): 5.41
Human PD-1 protein [11]
  Kd: 0.349 nM
  koff: 7.53e-05 s⁻¹
  kon: 215000 M⁻¹ s⁻¹

B9: AHF16569 (antibody, V domains shown)
VH: B2 VH with T59I, E62W, T97A, A102E, F105A
VL: B3 VL
Human PD-1 protein [10]
  Ratio (kD): 6.64
  Ratio (kd): 6.04
Human PD-1 protein [11]
  Kd: 0.339 nM
  koff: 6.74e-05 s⁻¹
  kon: 199000 M⁻¹ s⁻¹

B10: AHF16559 (antibody, V domains shown)
VH: B2 VH with T59V, T97A, F105H
VL: B3 VL with R31H
Human PD-1 protein [10]
  Ratio (kD): 6.06
  Ratio (kd): 5.34
Human PD-1 protein [11]
  Kd: 0.371 nM
  koff: 7.62e-05 s⁻¹
  kon: 206000 M⁻¹ s⁻¹

B11: AHF16565 (antibody, V domains shown)
VH: B2 VH with T59V, E62W, T97A, A102E, F105H, A106G
VL: B3 VL
Human PD-1 protein [10]
  Ratio (kD): 2.46
  Ratio (kd): 3.45
Human PD-1 protein [11]
  Kd: 0.913 nM
  koff: 0.000118 s⁻¹
  kon: 130000 M⁻¹ s⁻¹

B12: AHF16561 (antibody, V domains shown)
VH: B2 VH with T59I, T97A, F105A, A106G
VL: B3 VL
Human PD-1 protein [10]
  Ratio (kD): 7.45
  Ratio (kd): 7.36
Human PD-1 protein [11]
  Kd: 0.302 nM
  koff: 5.53e-05 s⁻¹
  kon: 183000 M⁻¹ s⁻¹

B13: AHF16558 (antibody, V domains shown)
VH: B2 VH with T97A, A102E, F105H
VL: B3 VL
Human PD-1 protein [10]
  Ratio (kD): 7.26
  Ratio (kd): 5.29
Human PD-1 protein [11]
  Kd: 0.31 nM
  koff: 7.69e-05 s⁻¹
  kon: 248000 M⁻¹ s⁻¹

B14: AHF16557 (antibody, V domains shown)
VH: B2 VH with T59V, E62W, T97A, F105A, A106G
VL: B3 VL with R31H
Human PD-1 protein [10]
  Ratio (kD): 5.29
  Ratio (kd): 4.69
Human PD-1 protein [11]
  Kd: 0.425 nM
  koff: 8.68e-05 s⁻¹
  kon: 204000 M⁻¹ s⁻¹

B15: humanized antibody 1G1-h61 (antibody, human IgG4, kappa, V domains shown)
VH: B2 VH with I48M, T97A
VL: B2 VL with Q50K
notes: as for B2
[8]
  binding result: binds
[9]
  binding result: binds

B16: AHF16560 (antibody, V domains shown)
VH: B2 VH with T59I, T97A, A102E, F105H, A106G
VL: B3 VL
Human PD-1 protein [10]
  Ratio (kD): 6.8
  Ratio (kd): 6.04
Human PD-1 protein [11]
  Kd: 0.331 nM
  koff: 6.74e-05 s⁻¹
  kon: 204000 M⁻¹ s⁻¹

B17: AHF16568 (antibody, V domains shown)
VH: B2 VH with T59I, E62W, T97A, A102E, F105M, A106G
VL: B3 VL
Human PD-1 protein [10]
  Ratio (kD): 9.34
  Ratio (kd): 11.6
Human PD-1 protein [11]
  Kd: 0.241 nM
  koff: 3.52e-05 s⁻¹
  kon: 146000 M⁻¹ s⁻¹
